Assay results taken from article PMC8760513, “Mechanistic details of the actinobacterial lyase-catalyzed degradation reaction of 2-hydroxyisobutyryl-CoA” (The Journal of Biological Chemistry, 2021).
Numbering of substitutions follows the chain as printed. In names and notes the source's numbering stands.

B1: AcHACL (Actinomycetospora chiangmaiensis DSM 45062) (protein)
chain: MADRQDAERSGAGPARQSVPVASLVAEFLQEHGVDRVFGLQGGHIQPIWDQLARRGVRIVDVRDEGSAVHMAHAHTELTGQTAVAMVTAGPGVTNTVTAVANASVSRIPLLVIGGCPPIPQSNMGPLQDIPHTAILEPITRLARTLRSADQVLREFDEAWARASGDRGEPGPVYLEIPTDVLRRDVPPALQMREHLRAKPKRRPQPHPDDVAAVADLIRAAEKPAIISGRGARTTDGTDLVRLLDASGAAYLDTQESRGLVPDSHPAAVGSARSAVMRDTDLLITVGRQLDYQLGMGSPAVFPHAKVVRIADTASELIDNRRGEVEILAEPGAALAAIADALKDHTPDTSWRDELKAKHRKRAEDYRQALHSTENGADGHIHPNRIFGALDALDGDVLDLGETIMIADGGDLLSFGRLGITKARRYLDAGAFGCLGVATPFAIGAALAYPDRPVVAVTGDGAFGITATEIDTAVRHDAKIVVIVSNNRAWNIERYDQAENYGLVVGTDLADSDYAGVARAFGAHGERVTDPAELEGAIRRALANAPALVDVVTTQDAASPDSGKGLGFVPDYQALTPWNDAEVARRQEGI
B2: AcHACL (Actinomycetospora chiangmaiensis DSM 45062; E493A) (protein)
chain: B1 chain with E493A
B3: AcHACL (Actinomycetospora chiangmaiensis DSM 45062; E493Q) (protein)
chain: B1 chain with E493Q

Substrate: CC(C)(O)C(=O)SCCNC(=O)CCNC(=O)[C@H](O)C(C)(C)COP(=O)(O)OP(=O)(O)OC[C@H]1O[C@@H](n2cnc3c(N)ncnc32)[C@H](O)[C@@H]1OP(=O)(O)O
Assay: purified protein
Conditions: lyase direction, 37 °C, pH 7.2, 100 mM potassium phosphate, 10% glycerol, 0.2 mM ThDP, 0.2 mM ADP, 5 mM MgCl2, complex structure with dzThDP

Protein | Km [µM] | Vmax [µmol/min/mg] | kcat [s⁻¹] | kcat/Km [M⁻¹ s⁻¹]
B1 | 120 ± 12 | 1.2 | 1.3 | 11000
B2 | 21 ± 4 | 0.098 | 0.11 | 5100
B3 | 79 ± 7 | 0.025 | 0.03 | 340
